Patent US20230037911A1 (SHANGHAI HENLIUS BIOTECH, published 2023)

T1: recombinant human TIGIT extra cellular domain (ECD) protein (human, UniProt Q495A1 22-138)
T1 construct: Purchased protein; it begins with the signal peptide; also called h-TIGIT ECD; human TIGIT ECD
T1 sequence: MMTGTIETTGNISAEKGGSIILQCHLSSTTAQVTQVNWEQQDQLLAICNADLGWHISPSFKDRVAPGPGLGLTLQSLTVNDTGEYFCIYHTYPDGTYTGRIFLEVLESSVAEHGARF

T2: human TIGIT stably expressed on cells (Jurkat; 293T) (human, UniProt Q495A1 22-244)
T2 construct: the expression vector's insert is not described further; also called h-TIGIT; human TIGIT transfected Jurkat cells
T2 sequence: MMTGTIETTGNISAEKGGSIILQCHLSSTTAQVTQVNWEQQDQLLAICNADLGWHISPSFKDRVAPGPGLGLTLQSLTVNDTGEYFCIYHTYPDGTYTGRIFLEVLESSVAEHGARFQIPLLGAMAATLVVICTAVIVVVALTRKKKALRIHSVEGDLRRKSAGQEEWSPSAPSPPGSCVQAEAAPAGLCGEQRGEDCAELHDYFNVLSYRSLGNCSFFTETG


How the values were obtained:
[1] = target: T1, recombinant human TIGIT extra cellular …; experiment: ELISA, VHH in supernatant on h-TIGIT ECD coated plates
[2] = target: T2, human TIGIT stably expressed on cells …; experiment: whole cell binding on TIGIT stable cells (species not named in the legend, taken as human); scatter of EC50 against IC50, nM per the legend
[3] = target: T1, recombinant human TIGIT extra cellular …; experiment: PVR blocking ELISA (PVR binding to h-TIGIT blocked by the clone); scatter of IC50 against EC50, nM per the legend

| binding result [1] | binding result [2] | binding result [3] | Binder |
| --- | --- | --- | --- |
| binds | – | – | 4C5 VHH (VHH, VHH in bacterial supernatant) VHH: QVQLVDSGGGLVQAGGSLRLSCAVSGRSVSTYFVGWFRQAPGKEREFVAAIDRGSTVTRYDDSVKGRFTISRDNAKDTVYLQMNSLKPEDTAVYYCAAKAITRNFIATNDYDYWGQGTQVTVSS |
| – | binds | binds | 1A10 VHH (VHH, VHH in bacterial supernatant) VHH: QVQLVESGGGVVQPGRSLRLSCAASGNSFSSYPMGWFRQAPGKERESVAAISSDGRFSYYADSVKGRFTISRDNSKNTLYLQMNSLRAEDTAVYYCACRDSGSGYYSRAQWYDYWGQGTLVTVSS |
| – | binds | binds | 2A6 VHH (VHH, VHH in bacterial supernatant) VHH: QVQLVESGGGVVQPGRSLRLSCAASGPSFSLYPMGWFRQAPGKERESVAAISSDRRFTYYADSVKGRFTISRDNSKNTLYLQMNSLRAEDTAVYYCAARDSGSGYYSRAQWYDYWGQGTLVTVSS |
| – | binds | binds | 6B11 VHH (VHH, VHH in bacterial supernatant) VHH: QVQLVESGGGVVQPGRSLRLSCAASGPSFPSYPMGWFRQAPGKERESVAAISSRGRFTYYADSVKGRFTISRDNSKNTLYLQMNSLRAEDTAVYYCAARDSGSGYYSRLQWYDYWGQGTLVTVSS |
| – | binds | binds | 7B11 VHH (VHH, VHH in bacterial supernatant) VHH: QVQLVESGGGVVQPGRSLRLSCAASGPSFLIYPMGWFRQAPGKERESVAAISSDGRFWYYADSVKGRFTISRDNSKNTLYLQMNSLRAEDTAVYYCAARDSGSGYYSRVQWYDYWGQGTLVTVSS |
| – | binds | binds | 6D8 VHH (VHH, VHH in bacterial supernatant) VHH: QVQLVESGGGVVQPGRSLRLSCAASGPSFSSKPMGWFRQAPGKERESVAARSSDGRFTYYADSVKGRFTISRDNSKNTLYLQMNSLRAEDTAVYYCAARDSGSGRYSRAQWYDYWGQGTLVTVSS |
| – | binds | binds | 6D12 VHH (VHH, VHH in bacterial supernatant) VHH: QVQLVESGGGVVQPGRSLRLSCAASGPSFSTYPMGWFRQAPGKERESVAAISSDGVFTYYADSVKGRFTISRDNSKNTLYLQMNSLRAEDTAVYYCAARDSGSGYYSREQWYDYWGQGTLVTVSS |
| – | binds | binds | 2A5 VHH (VHH, VHH in bacterial supernatant) VHH: QVQLVESGGGVVQPGRSLRLSCAASGPSFSSYPMGWFRQAPGKERESVAAISSVGRFTYYADSVKGRFTISRDNSKNTLYLQMNSLRAEDTAVYYCAARDSGSGYYSRWQWYDYWGQGTLVTVSS |
| – | binds | binds | 5E8 VHH (VHH, VHH in bacterial supernatant) VHH: QVQLVESGGGVVQPGRSLRLSCAASGPSFSSYPMGWFRQAPGKERESVAAQSSDGRFTYYADSVKGRFTISRDNSKNTLYLQMNSLRAEDTAVYYCAARDSGSGYYSRAQWYDYWGQGTLVTVSS |
| – | binds | binds | 2D5 VHH (VHH, VHH in bacterial supernatant) VHH: QVQLVESGGGVVQPGRSLRLSCAASGPSFSSSPMGWFRQAPGKERESVAAISWDGRFTYYADSVKGRFTISRDNSKNTLYLQMNSLRAEDTAVYYCAARDSGSGYYSRAQWYVYWGQGTLVTVSS |
| – | binds | binds | 2C5 VHH (VHH, VHH in bacterial supernatant) VHH: QVQLVESGGGVVQPGRSLRLSCAASGPSFSTYPMGWFRQAPGKERESVAAISSQGRFTYYADSVKGRFTISRDNSKNTLYLQMNSLRAEDTAVYYCAARDSGSGYYSRAQWYDYWGQGTLVTVSS |
| – | binds | binds | 1D11 VHH (VHH, VHH in bacterial supernatant) VHH: QVQLVESGGGVVQPGRSLRLSCAASGPSFSSSPMGWFRQAPGKERESVAAISSMGRFTYYADSVKGRFTISRDNSKNTLYLQMNSLRAEDTAVYYCAARDSGSGYYSRAQWYDYWGQGTLVTVSS |
| – | binds | binds | 5B5 VHH (VHH, VHH in bacterial supernatant) VHH: QVQLVESGGGVVQPGRSLRLSCAASGPSFSSYPMGWFRQAPGKERESVAAISSDTRFTYYADSVKGRFTISRDNSKNTLYLQMNSLRAEDTAVYYCAARDSGSGYYSRAQWYDRWGQGTLVTVSS |
| – | binds | binds | 1C7 VHH (VHH, VHH in bacterial supernatant) VHH: QVQLVESGGGVVQPGRSLRLSCAASGPSFSSYPMGWFRQAPGKERESVAAISSRGRFTYYADSVKGRFTISRDNSKNTLYLQMNSLRAEDTAVYYCAARGSGSGYYSRAQWYDYWGQGTLVTVSS |
| – | binds | binds | 6E9 VHH (VHH, VHH in bacterial supernatant) VHH: QVQLVESGGGVVQPGRSLRLSCAASGPSRSSYPMGWFRQAPGKERESVAAISSDGKFTYYADSVKGRFTISRDNSKNTLYLQMNSLRAEDTAVYYCAARDSGSGYYSRANWYDYWGQGTLVTVSS |
| – | binds | binds | 5G10 VHH (VHH, VHH in bacterial supernatant) VHH: QVQLVESGGGVVQPGRSLRLSCAASGPRFSSYPMGWFRQAPGKERESVAAISSDGRFTYYADSVKGRFTISRDNSKNTLYLQMNSLRAEDTAVYYCAARDSGSGYYSRAQWYDGWGQGTLVTVSS |
| binds | – | – | 4E5 VHH (VHH, VHH in bacterial supernatant) VHH: QVQLVDSGGGVVEVGASLTLSCETSGLTSSDIAVGWFRQGPGKERESVAAISSDGRFTYYAASVKGRFTISKDNAKSAAFLQMNSLKPEDTAVYYCAARDSGSGYYSRAQWYDYWGQGTQVTVSS |
| binds | – | – | 4C6 VHH (VHH, VHH in bacterial supernatant) VHH: QVQLVESGGGLVQAGGSLRLACAASGRTFSSYPMGWFRQGPGKERESVAAISSDGRFTYYAASVKGRFTISKDNAKSAAFLQMNSLKPEDTAVYRCAVDPTGWGTIEADFRSWGQGTQVTVSS |
| binds | – | – | 3H7 VHH (VHH, VHH in bacterial supernatant) VHH: QVKLEESGGGLVQAGGSLRLSCAASGSILSAGVMRWYRQAPGKQRELVASIALDGSTGYYIDSVKGRFTISRDNAKNIVYLDMRSLEPADTAVYLCNANIRTDMRSAPFDHWGHGTQVTVSS |
| binds | – | – | 12H7 VHH (VHH, VHH in bacterial supernatant) VHH: QVQLVDSGGGLVQAGGSLRLSCKVSGNFLSVSDMSWYRQAPGMERDVVATVTEHGRTTYTDSVKGRFTISRDNAEHTTYLEMNNLKPEDTAVYFCKASDVFTDAGAHEAVLIRDYWGQGTQVTVSS |
| binds | – | – | 4B5 VHH (VHH, VHH in bacterial supernatant) VHH: QVKLEESGGRSVLAGGSLRLRCAGTPRTFSTFHIGWFRQAPGKEREFVAAFNWSGGRTYYADSVKGRFTISRNNGKNMVYLQMTSLTPEDTGLYYCAAARDRGLHDGTTSDSYLEGSHEYEYWGQGTQVTVSS |
| binds | – | – | 4A11 VHH (VHH, VHH in bacterial supernatant) VHH: QVKLEESGGGEAQPGGSLRLSCTASGRPFSNYTMGWFRRAPGKEREFVGLAWPSPSTYVVDSVKGRFTISRDNAKNTIYLQMNSLKPEDTAIYYCAADYKSLTQSWLNAALDYWGQGTQVTVSS |
